We go through four molecules from paper PMC2665095 (The Journal of Biological Chemistry, 2009).

In series [1] the target is T1, PBS3 (AtGH3.12; His-PBS3) (Arabidopsis thaliana, UniProt Q9LYU4).
T1 sequence (Q9LYU4 1-575): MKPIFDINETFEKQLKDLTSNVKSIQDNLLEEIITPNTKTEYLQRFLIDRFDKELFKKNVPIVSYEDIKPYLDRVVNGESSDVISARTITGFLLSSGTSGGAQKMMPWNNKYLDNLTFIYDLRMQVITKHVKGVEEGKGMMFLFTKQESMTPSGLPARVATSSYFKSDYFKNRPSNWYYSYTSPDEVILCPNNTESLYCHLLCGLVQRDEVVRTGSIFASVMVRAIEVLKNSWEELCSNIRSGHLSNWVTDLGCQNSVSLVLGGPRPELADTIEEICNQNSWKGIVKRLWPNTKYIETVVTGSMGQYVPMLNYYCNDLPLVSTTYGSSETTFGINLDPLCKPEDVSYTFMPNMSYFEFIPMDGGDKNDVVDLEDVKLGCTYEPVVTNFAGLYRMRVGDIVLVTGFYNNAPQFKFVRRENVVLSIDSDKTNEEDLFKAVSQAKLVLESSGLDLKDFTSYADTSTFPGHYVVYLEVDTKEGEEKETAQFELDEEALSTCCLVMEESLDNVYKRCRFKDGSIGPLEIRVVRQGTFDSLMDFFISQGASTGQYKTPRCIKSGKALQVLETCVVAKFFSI
Put plainly: coupled adenylation assay. To be noted: 150 μM pABA, 5 mM ATP, 5 mM MgCl2, pH 7.4. It is filed as biochemical.

Series [2] has as its target T1, PBS3 (AtGH3.12; His-PBS3). Put plainly: HPLC of pABA-Glu formation. It is filed as biochemical.
Substrate in series [3]: O=C(O)c1ccccc1
The series is described as follows: purified protein. To be noted: 10 mM Glu, 5 mM ATP, 5 mM MgCl2, pH 8.5.

Substrate in series [4]: Nc1ncnc2c1ncn2[C@@H]1O[C@H](COP(=O)(O)OP(=O)(O)OP(=O)(O)O)[C@@H](O)[C@H]1O
The series is described as follows: purified protein. To be noted: with 10 mM 4-HBA, Mg2+, pH 7.4, 30 °C.

Substrate in series [5]: Nc1ccc(C(=O)O)cc1
Put plainly: purified protein. To be noted: 10 mM Glu, 5 mM ATP, 5 mM MgCl2, pH 8.5.

Substrate in series [6]: O=C(O)c1ccc(O)cc1
Put plainly: purified protein. To be noted: 10 mM Glu, 5 mM ATP, 5 mM MgCl2, pH 8.5.

Substrate in series [7]: C=C(O[C@H]1C=CC=C(C(=O)O)[C@@H]1O)C(=O)O
The series is described as follows: coupled spectrophotometric assay. In kind it is biochemical, Pseudomonas aeruginosa. To be noted: modified ICS assay conditions (100 mM Tris, pH 7.7).

`O=C(O)c1cc(Cl)nc(Cl)c1` [INA]: in series [1], the “Fractional inhibition (300 μM)” value is 0.70 fraction.
For `O=C(O)c1ccccc1O` [salicylate], in series [2], the IC50 was around 15 µM.

B1: PBS3 (AtGH3.12; His-PBS3) (Arabidopsis thaliana) (protein)
chain: MKPIFDINETFEKQLKDLTSNVKSIQDNLLEEIITPNTKTEYLQRFLIDRFDKELFKKNVPIVSYEDIKPYLDRVVNGESSDVISARTITGFLLSSGTSGGAQKMMPWNNKYLDNLTFIYDLRMQVITKHVKGVEEGKGMMFLFTKQESMTPSGLPARVATSSYFKSDYFKNRPSNWYYSYTSPDEVILCPNNTESLYCHLLCGLVQRDEVVRTGSIFASVMVRAIEVLKNSWEELCSNIRSGHLSNWVTDLGCQNSVSLVLGGPRPELADTIEEICNQNSWKGIVKRLWPNTKYIETVVTGSMGQYVPMLNYYCNDLPLVSTTYGSSETTFGINLDPLCKPEDVSYTFMPNMSYFEFIPMDGGDKNDVVDLEDVKLGCTYEPVVTNFAGLYRMRVGDIVLVTGFYNNAPQFKFVRRENVVLSIDSDKTNEEDLFKAVSQAKLVLESSGLDLKDFTSYADTSTFPGHYVVYLEVDTKEGEEKETAQFELDEEALSTCCLVMEESLDNVYKRCRFKDGSIGPLEIRVVRQGTFDSLMDFFISQGASTGQYKTPRCIKSGKALQVLETCVVAKFFSI
Regarding B1, the Km is 867 µM in the series “purified protein [3]”, 791 µM in “purified protein [4]”, 153 µM in “purified protein [5]” and 459 µM in “purified protein [6]”. The kcat in the series “purified protein [3]” worked out at 0.066 s⁻¹; in the series “purified protein [5]” it was 0.0457 s⁻¹; in “purified protein [6]” it was 0.339 s⁻¹. The results for the specificity constant (kcat/Km) in the series “purified protein [3]”, in “purified protein [5]” and in “purified protein [6]” were 76.7 M⁻¹ s⁻¹, 298 M⁻¹ s⁻¹ and 740 M⁻¹ s⁻¹, respectively.

B2: PchB (isochorismate pyruvate lyase) (Pseudomonas aeruginosa PAO1) (protein)
chain: MKTPEDCTGLADIREAIDRIDLDIVQALGRRMDYVKAASRFKASEAAIPAPERVAAMLPERARWAEENGLDAPFVEGLFAQIIHWYIAEQIKYWRQTRGAA
In the case of B2, in series [7], the Km is 60 µM.
